Measurements as given in patent US20220363763A1 (ABL BIO, published 2022).
Values belong to the binder of their own block, whether it stands above or below them.

Experiments:
human LAG3 on cells [1] = biological target: T1, human LAG3 on cells (human, UniProt P18627 23-525); test: flow cytometry (MFI) on human LAG3-expressing Jurkat cells, upper panel
T1 construct: whole, on cells; also called Jurkat-LAG3
T1 sequence (looked up): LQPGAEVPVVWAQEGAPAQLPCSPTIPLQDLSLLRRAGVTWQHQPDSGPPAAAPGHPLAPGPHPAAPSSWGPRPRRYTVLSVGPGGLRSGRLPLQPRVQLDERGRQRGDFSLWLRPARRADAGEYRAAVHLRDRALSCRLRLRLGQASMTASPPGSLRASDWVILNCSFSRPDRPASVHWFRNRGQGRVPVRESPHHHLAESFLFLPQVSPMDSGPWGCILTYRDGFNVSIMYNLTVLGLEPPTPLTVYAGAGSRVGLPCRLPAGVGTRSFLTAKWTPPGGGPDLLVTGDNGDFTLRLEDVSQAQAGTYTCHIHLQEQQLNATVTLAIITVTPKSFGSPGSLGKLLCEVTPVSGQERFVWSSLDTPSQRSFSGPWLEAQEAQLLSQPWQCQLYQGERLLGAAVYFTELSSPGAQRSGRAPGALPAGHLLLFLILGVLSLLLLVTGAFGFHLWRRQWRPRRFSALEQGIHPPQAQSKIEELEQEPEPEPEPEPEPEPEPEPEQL
Experimental: (§1) To further confirm that B3807 could bind to cell-derived human LAG3, both inducible human LAG3 expressed Jurkat cells and activated PBMCs were used to test the binding capability of B3807. In brief, Jurkat cells were resuspended in FACS buffer. B3807, 25F7 and isotype control were 3-fold serially diluted in FACS buffer with a dose ranging from 20 nM to 9 pM. The serially diluted antibodies were added to the cell suspension and incubated for 30 minutes on ice. Then after removal of unbound antibodies, cells were stained with anti-human IgG conjugated with Alexa Fluor 633 (Thermo, A21091). Fluorescence measurement was acquired on FACSCelesta flow cytometer and analyzed in Flowjo to determine the mean fluorescence intensities (MFI). To test the antibodies' ability of binding to native human LAG3, PBMCs from health donor were stimulated with anti-CD3 (BD, 555336) and anti-CD28 (BD, 555725) both at a concentration of 1 μg/ml. Following 3 days' stimulation, cells were harvested and incubated with anti-LAG3 antibodies for 30 mins on ice. The cells were stained with anti-human CD4 and anti-human IgG. Analysis of antibodies binding to CD4+ cells were carried out on FACSCelesta flow cytometry.

human LAG3 on cells [2] = biological target: T1, human LAG3 on cells; test: flow cytometry (MFI) on activated human PBMC (CD4+ cells), lower panel
Experimental: as §1

Bio-LAG3 = biological target: T2, Bio-LAG3 (human, UniProt P18627 23-450, limits assumed, biotinylated (sites not given)); test: ELISA, Bio-LAG3 held on streptavidin-coated plate
T2 construct: also called human LAG3 protein
T2 sequence (looked up): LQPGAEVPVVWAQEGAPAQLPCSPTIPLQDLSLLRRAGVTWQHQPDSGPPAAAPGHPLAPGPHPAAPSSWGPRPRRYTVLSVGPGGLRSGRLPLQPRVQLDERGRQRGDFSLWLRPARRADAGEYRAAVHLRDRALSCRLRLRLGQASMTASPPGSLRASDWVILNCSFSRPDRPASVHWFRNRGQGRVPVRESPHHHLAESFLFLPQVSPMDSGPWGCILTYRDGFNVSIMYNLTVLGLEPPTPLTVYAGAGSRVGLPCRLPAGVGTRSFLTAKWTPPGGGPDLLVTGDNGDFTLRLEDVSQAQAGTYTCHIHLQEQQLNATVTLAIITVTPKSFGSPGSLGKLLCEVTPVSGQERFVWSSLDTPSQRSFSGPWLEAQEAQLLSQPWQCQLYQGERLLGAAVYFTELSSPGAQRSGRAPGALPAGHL
Experimental: The streptavidin was coated to an ELISA plate at 2 μg/ml with 100 μl/well. 100 μl of Bio-LAG3 at 1.0 μg/ml was subsequently incubated with streptavidin at RT for 1 hr. B3807, along with a positive control 25F7 and a negative control IgG, were serially diluted with ELISA diluent buffer. To assess binding, the antibodies at various concentrations were added to LAG3 protein-coated plate for 1.5 hr RT. The resulting plates were washed and then labeled with anti-human IgG(Fab)-HRP antibody.

[3] = biological target: T3, recombinant human LAG-3-ECD-human IgG1 fusion protein (human, UniProt P18627 23-450, biotin-labeled in the MHC class II blocking assays); test: flow cytometry; blocking of biotin-LAG-3-ECD-huFc binding to MHC class II on Raji cells
T3 construct: extracellular domain; also called LAG-3-huFc; LAG-3-ECD-huFc; not shown: human IgG1 Fc
T3 sequence (looked up): T2 sequence (looked up)
Experimental: To evaluate the ability of anti-LAG-3 antibodies to block the binding of sLAG-3 to MHC class II receptor, an in vitro binding assay was designed using biotin-labeled LAG-3-ECD-huFc fusion proteins and Raji cells expressing MHC class II receptor. Antibodies from Example 1 were serially diluted from 20 μg/mL with FACS buffer and pre-incubated with 6 μg/mL of biotin-LAG-3-ECD-huFcc for 30 min at room temperature. The antibody mixture was then added to FcR blocked Raji cells and incubated for 30 min on ice. Cells were then washed with FACS buffer and subsequently stained with streptavidin PE for 30 min on ice and subsequently washed once with FACS buffer. Labeled cells were evaluated for fluorescence intensity by flow cytometry in a BD FACSCalibur™.

[4] = biological target: T4, mouse LAG3 ECD-Fc protein (mouse, UniProt Q61790 24-442); test: ELISA on coated mouse LAG3 ECD-Fc; EC50 table has no unit, x axis Ab(nM); curve without upper plateau
T4 construct: extracellular domain; not shown: Fc part
T4 sequence (looked up): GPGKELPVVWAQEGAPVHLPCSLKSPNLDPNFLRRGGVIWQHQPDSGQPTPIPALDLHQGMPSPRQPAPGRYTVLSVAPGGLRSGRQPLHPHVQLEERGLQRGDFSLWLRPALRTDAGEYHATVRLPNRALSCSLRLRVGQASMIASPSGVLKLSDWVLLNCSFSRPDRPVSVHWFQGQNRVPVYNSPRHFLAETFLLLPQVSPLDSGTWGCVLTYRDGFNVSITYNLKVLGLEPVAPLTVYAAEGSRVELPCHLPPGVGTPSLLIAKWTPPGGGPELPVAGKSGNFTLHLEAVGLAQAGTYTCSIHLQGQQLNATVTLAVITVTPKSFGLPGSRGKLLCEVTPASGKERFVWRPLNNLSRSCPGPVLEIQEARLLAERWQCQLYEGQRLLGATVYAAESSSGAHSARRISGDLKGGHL
Experimental: (§2) To evaluate the capability of the anti-LAG-3 antibodies to bind to human, rat, and mouse LAG3 the antibodies identified in Example 2.1 were evaluated for their binding property through ELISA. The human, rat and mouse LAG3 ECD-Fc protein were coated to ELISA plate at 1 μg/ml with 100 μl/well. Antibodies from Example 1 were serially diluted with ELISA diluent buffer. […] The resulting plates were washed and then labeled with anti-human IgG(Fab)-HRP antibody. The S31 can only bind to human LAG3. The S27 and T99 can bind to human LAG3 and rat/mouse LAG3 with lower potency. The S119 antibody can bind to human, rat and mouse LAG3 at high potency (FIGS. 22A-22D).

rat LAG3 ECD-Fc protein = biological target: T5, rat LAG3 ECD-Fc protein (rat, UniProt Q5BK54 24-442); test: ELISA on coated rat LAG3 ECD-Fc; EC50 table has no unit, x axis Ab(nM); curve without upper plateau
T5 construct: extracellular domain; not shown: Fc part
T5 sequence (looked up): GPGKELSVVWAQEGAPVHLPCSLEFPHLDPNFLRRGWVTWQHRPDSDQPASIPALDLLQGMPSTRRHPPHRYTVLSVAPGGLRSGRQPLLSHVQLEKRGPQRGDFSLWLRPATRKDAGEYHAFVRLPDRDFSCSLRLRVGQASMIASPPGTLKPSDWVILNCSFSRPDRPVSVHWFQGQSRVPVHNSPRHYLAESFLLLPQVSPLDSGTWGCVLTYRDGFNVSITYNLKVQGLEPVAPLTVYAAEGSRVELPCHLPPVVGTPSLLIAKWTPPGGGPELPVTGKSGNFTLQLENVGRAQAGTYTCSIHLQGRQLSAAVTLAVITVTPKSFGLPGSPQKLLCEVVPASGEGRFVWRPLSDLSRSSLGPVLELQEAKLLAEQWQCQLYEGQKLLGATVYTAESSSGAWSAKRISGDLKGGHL
Experimental: as §2

[5] = biological target: T3, recombinant human LAG-3-ECD-human IgG1 …; test: ELISA on coated human LAG3 ECD-Fc; EC50 table has no unit, x axis Ab(nM)
Experimental: as §2

[6] = biological target: T6, recombinant his-tag human LAG3-ECD protein (human, UniProt P18627 23-450); test: SPR Biacore T200, antibody captured by anti-human Fc, LAG3-ECD-his injected
T6 construct: extracellular domain; not shown: his tag
T6 sequence (looked up): T2 sequence (looked up)
Experimental: The binding of the S20, S24, S27, S31, S87, S119, S120, S128, S136, S161 and T99 antibodies to recombinant his-tag human LAG3-ECD protein was examined by Biacore T200 using a capture method. Anti-LAG3 antibodies were captured using anti-human Fc antibody. The anti-human Fc antibody was coated on chip. Serial concentrations of his-tag human LAG3-ECD protein (0-4 nM) were injected over capture antibodies at the flow rate of 30 μl/min. The dissociation phase was 900 s or 550 s. The Biacore results for the anti-LAG3 antibodies have shown that these anti-LAG3 antibodies are high affinity binder to human LAG3.

EC50 (human LAG3 on cells [1]): 0.57 nM
EC50 (human LAG3 on cells [2]): 0.52 nM
EC50 (Bio-LAG3): 0.22 nM
B1: 25F7 (antibody, V domains shown)
VH: QVQLQQWGAGLLKPSETLSLTCAVYGGSFSDYYWNWIRQPPGKGLEWIGEINHNGNTNSNPSLKSRVTLSLDTSKNQFSLKLRSVTAADTAVYYCAFGYSDYEYNWFDPWGQGTLVTVSS
VL: EIVLTQSPATLSLSPGERATLSCRASQSISSYLAWYQQKPGQAPRLLIYDASNRATGIPARFSGSGSGTDFTLTISSLEPEDFAVYYCQQRSNWPLTFGQGTNLEIK

IC50 [3]: 29.8 nM
EC50 [4]: 12.6 nM
EC50 (rat LAG3 ECD-Fc protein): 13.9 nM
EC50 [5]: 0.21 nM
Kd [6]: 0.0156 nM
koff [6]: 0.00011 s⁻¹
kon [6]: 7.04e+06 M⁻¹ s⁻¹
B2: NLAG3-HDB169-S27 (antibody, human IgG1, V domains shown)
VH: QVQLVQSGAEVKKPGSSVKVSCKASGGTFSSYAISWVRQAPGQGLEWMGGIIPIFGTANYAQKFQGRVTITADESTSTAYMELSSLRSEDTAVYYCTTAAPGSYYLVFHYWGQGTLVTVSS
VL: DIQLTQSPSSLSASVGDRVTITCRASQTISSHLNWYQQKPGKAPKVLIYAASSLQSGVPSRFSGSGSGTEFTLTISSLQPDDFATYYCQQGNSFPFTFGPGTKVEIKR
notes: Short label tied by its unique suffix

IC50 [3]: 23.7 nM
EC50 [4]: 16.9 nM
EC50 (rat LAG3 ECD-Fc protein): 20.9 nM
EC50 [5]: 0.0638 nM
Kd [6]: 0.0224 nM
koff [6]: 0.00017 s⁻¹
kon [6]: 7.62e+06 M⁻¹ s⁻¹
B3: NLAG3-HDB169-T99 (antibody, human IgG1, V domains shown)
VH: QVQLVQSGAEVKKPGSSVKVSCKASGGTFSSYAISWVRQAPGQGLEWMGGIIPIFGTANYAQKFQGRVTITADESTSTAYMELSSLRSEDTAVYYCVRDLQDWNYGGAAYWGQGTLVTVSS
VL: VIWMTQSPSSLSASVGDSVTITCQASRDISNSLSWHQQKPGKAPKLLIYAASSLQSGVPSRFSGSGSGTDFTLTISSLQPEDFATYYCQQTKSFPLTFGGGTKVEIKR
notes: as for B2
